Source: the RNAGym collection of RNA variant scans (doi:10.1073/pnas.2313332121)
This sample holds only a part of the variants without activity.

B1: TPR 5TU (parent)
chain: GGAUCUUCUCGAUCUAACAAAAAAGACAAAUCUGCCACAAAGCUUGAGAGCAUCUUCGGAUGCAGAGGCGGCAGCCUUCGGUGGCGCGAUAGCGCCAACGUUCUCAACUAUGACACGCAAAACGCGUGCUCCGUUGAAUGGAGUUUAUCAUG

Variants of: B1
Assay: polymerase ribozyme fitness, log enrichment relative to wild type (log ratio); higher = more active; in vitro selection for triplet polymerase activity
Summary of the method: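 PCR was used to build mutant libraries for each subunit of a heterodimeric triplet polymerase ribozyme, which were then transcribed. A single in vitro selection round, in triplicate, used a frozen incubation at −7 °C and recovered extended constructs by gel excision, streptavidin beads and RT-PCR. Fitness is the logarithm of genotype enrichment relative to wild-type enrichment, averaged over replicates with inverse-variance weights. The logarithm is base 2, and after Illumina sequencing only genotypes with ≥10 input reads and ≥1 read per output were kept.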

Variant | polymerase ribozyme fitness (log ratio)
GGAUCUUCUCGAUCUAACAAAAAAGACAAAUCUGCCACAAAGCUUGAGAGCAUCUUCGGAUGCAGAGGCGGCAGCCUUCGGUGGCGCGAUAGCGCCAACGUUCUCAACUAUGACACGCAAAGCGAGUGCUCCGGUGAAUGGAGUUUAUCAUG | -2.92
GGAUCUUCUCGAUCUAACAAAAAAGACAAAUCUGCCACAAAGCUUGAGAGCAUCUUCGGAUGCAGAGGCGGCAGCCUUCGGUGGCGCGAUAGCGCCAACGUUCUCAACUAUGACACGCAAUACGUGUGCUCCGUUGAAUGGAGUUUAUCAUG | -0.154
GGAUCUUCUCGAUCUAACAAAAAAGACAAAUCUGCCACAAAGCUUGAGAGCAUCUUCGGAUGCAGAGGCGGCAGCCUUCGGUGGCGCGAUAGCGCCAACGUUCUCAACUAUGACACGCAAAUCGCGUGCUCCGUUGAAUGGAGUUUAUUAUG | -0.616
GGAUCUUCUCGAUCUAACAAAAAAGACAAAUCUGCCACAAAGCUUGAGAGCAUCUUCGGAUGCAGAGGCGGCAGCCUUCGGUGGCGCGAUAGCGCCAACGUUCUCAACUAUGACACGCAAAUCGCGUGCUCCGUUGAAUGGAGUUCAUCAUG | -0.714
GGAUCUUCUCGAUCUAACAAAAAAGACAAAUCUGCCACAAAGCUUGAGAGCAUCUUCGGAUGCAGAGGCGGCAGCCUUCGGUGGCGCGAUAGCGCCAACGUUCUCAACUAUGACACGCAAAAAGCGUGCUCCGUUGAAUGGAGUUUAUCAUG | -0.404
GGAUCUUCUCGAUCUAACAAAAAAGACAAAUCUGCCACAAAGCUUGAGAGCAUCUUCGGAUGCAGAGGCGGCAGCCUUCGGUGGCGCGAUAGCGCCAACGUUCUCAACUAUGACACGCAAUACGCGUGCUCUGUUGAAUGGAGUUAAUCAUG | -0.968
GGAUCUUCUCGAUCUAACAAAAAAGACAAAUCUGCCACAAAGCUUGAGAGCAUCUUCGGAUGCAGAGGCGGCAGCCUUCGGUGGCGCGAUAGCGCCAACGUUCUCAACUAUGACACGCAAGACGCGUGCUCCGGUGAAUGGAGUUUAUCAUG | -2.56
GGAUCUUCUCGAUCUAACAAAAAAGACAAAUCUGCCACAAAGCUUGAGAGCAUCUUCGGAUGCAGAGGCGGCAGCCUUCGGUGGCGCGAUAGCGCCAACGUUCUCAACUAUGACACGCAAACCGCAUGCUCCGUUGAAUGGAGUUUAUCAUG | -0.186
GGAUCUUCUCGAUCUAACAAAAAAGACAAAUCUGCCACAAAGCUUGAGAGCAUCUUCGGAUGCAGAGGCGGCAGCCUUCGGUGGCGCGAUAGCGCCAACGUUCUCAACUAUGACACGCAAAGCGCGUGCUCCGUUGAAUGGAGGUUAUCAUG | 0.851
GGAUCUUCUCGAUCUAACAAAAAAGACAAAUCUGCCACAAAGCUUGAGAGCAUCUUCGGAUGCAGAGGCGGCAGCCUUCGGUGGCGCGAUAGCGCCAACGUUCUCAACUAUGACACGCAAAGCACGAGCUCCGUUGAAUGGAGUUUAUCAUG | -3.53
GGAUCUUCUCGAUCUAACAAAAAAGACAAAUCUGCCACAAAGCUUGAGAGCAUCUUCGGAUGCAGAGGCGGCAGCCUUCGGUGGCGCGAUAGCGCCAACGUUCUCAACUAUGACACGCAAUACGCGUGCUCCGUUGAAUGGAGUCUAUCAUG | 1.15
GGAUCUUCUCGAUCUAACAAAAAAGACAAAUCUGCCACAAAGCUUGAGAGCAUCUUCGGAUGCAGAGGCGGCAGCCUUCGGUGGCGCGAUAGCGCCAACGUUCUCAACUAUGACACGCAAUACGUGUGCUCCGUUGAAUGGACUUCAUCAUG | -3.38
GGAUCUUCUCGAUCUAACAAAAAAGACAAAUCUGCCACAAAGCUUGAGAGCAUCUUCGGAUGCAGAGGCGGCAGCCUUCGGUGGCGCGAUAGCGCCAACGUUCUCAACUAUGACACGCAAAUCGCGUGCUCCGUCGGAUGGAGUUUAUCAUG | -3.91
GGAUCUUCUCGAUCUAACAAAAAAGACAAAUCUGCCACAAAGCUUGAGAGCAUCUUCGGAUGCAGAGGCGGCAGCCUUCGGUGGCGCGAUAGCGCCAACGUUCUCAACUAUGACACGCAAAUCGCGUGCUCCGUUGAAUGCAGUUUAUCAUG | 0.115
GGAUCUUCUCGAUCUAACAAAAAAGACAAAUCUGCCACAAAGCUUGAGAGCAUCUUCGGAUGCAGAGGCGGCAGCCUUCGGUGGCGCGAUAGCGCCAACGUUCUCAACUAUGACACGCAAAAAGCGUGCUCCGUUGAAUAGAGUUUAUCAUG | -3.65
GGAUCUUCUCGAUCUAACAAAAAAGACAAAUCUGCCACAAAGCUUGAGAGCAUCUUCGGAUGCAGAGGCGGCAGCCUUCGGUGGCGCGAUAGCGCCAACGUUCUCAACUAUGACACGCAAAGCGCGUGCUCCUUUGAAUGGAGUUUAUCAUG | -3.59
GGAUCUUCUCGAUCUAACAAAAAAGACAAAUCUGCCACAAAGCUUGAGAGCAUCUUCGGAUGCAGAGGCGGCAGCCUUCGGUGGCGCGAUAGCGCCAACGUUCUCAACUAUGACACGCAAACCGCGUGCUCCGUUGAAUGGAGUUUAUUAUG | -1.16
GGAUCUUCUCGAUCUAACAAAAAAGACAAAUCUGCCACAAAGCUUGAGAGCAUCUUCGGAUGCAGAGGCGGCAGCCUUCGGUGGCGCGAUAGCGCCAACGUUCUCAACUAUGACACGCAAAGCGCGAACUCCGUUGAAUGGAGUUUAUCAUG | -4.01
GGAUCUUCUCGAUCUAACAAAAAAGACAAAUCUGCCACAAAGCUUGAGAGCAUCUUCGGAUGCAGAGGCGGCAGCCUUCGGUGGCGCGAUAGCGCCAACGUUCUCAACUAUGACACGCAAAGCGCGUGCUCCGUUGAGUGGAGUUUAUUAUG | -4
